Measurements as given in article PMC4156074.

Columns and labels:
[1] = target: pKal from cynomolgus monkey plasma (cynomolgus monkey); experiment: enzyme inhibition (steady state, tight-binding fit); DX-2930 on purified pKal of mouse, rat, rabbit and cynomolgus monkey; apparent; data not shown
[2] = target: Full-length human plasma kallikrein, activated form (human) (UniProt P03952)
[3] = target: Full-length human plasma kallikrein, activated form (human) (UniProt P03952); experiment: enzyme inhibition (steady state, tight-binding fit); DX-2930 IgG (up to 10 nM, 1.5-fold dilutions) incubated 1 h at 30 °C with 1 nM pKal, free or preincubated with 600 nM 2-chain HMWK, in 20 mM Tris-HCl pH 7.5, 150 mM NaCl, 1 mM EDTA, 0.1% PEG-8000, 0.1% Triton X-100; substrate H-Pro-Phe-Arg-AMC at 10, 50 or 100 uM; Ki from Ki app by Equation 2, averaged

Sequence of Full-length human plasma kallikrein, activated form (human) (P03952 20-390, chain 1 of 2): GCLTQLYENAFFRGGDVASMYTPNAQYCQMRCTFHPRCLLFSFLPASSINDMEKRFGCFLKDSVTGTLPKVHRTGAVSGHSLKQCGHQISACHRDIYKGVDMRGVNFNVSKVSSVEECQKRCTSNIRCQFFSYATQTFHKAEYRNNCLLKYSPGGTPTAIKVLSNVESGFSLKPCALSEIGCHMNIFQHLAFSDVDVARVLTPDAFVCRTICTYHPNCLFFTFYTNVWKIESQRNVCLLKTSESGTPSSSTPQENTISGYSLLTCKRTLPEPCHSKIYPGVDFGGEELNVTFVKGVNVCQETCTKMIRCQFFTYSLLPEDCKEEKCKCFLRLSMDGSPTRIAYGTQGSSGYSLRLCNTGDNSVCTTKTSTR
Sequence of Full-length human plasma kallikrein, activated form (human) (P03952 391-638, chain 2 of 2): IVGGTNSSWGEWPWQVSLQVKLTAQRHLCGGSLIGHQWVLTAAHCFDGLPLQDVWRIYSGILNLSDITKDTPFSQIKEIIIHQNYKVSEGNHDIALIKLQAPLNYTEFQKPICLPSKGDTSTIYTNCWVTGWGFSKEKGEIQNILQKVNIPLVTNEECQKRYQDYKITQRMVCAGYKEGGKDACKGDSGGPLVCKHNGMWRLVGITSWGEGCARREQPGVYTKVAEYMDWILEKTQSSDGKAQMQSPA

Ki [1]: 0.07 nM
release of bradykinin from 1-chain HMWK (20 nM) by pKal (0.15 nM) after 1 h with DX-2930, bradykinin ELISA; blocks the proteolysis of HMWK by pKal [2]: 1.3 nM
Ki [3]: 0.12 nM
B1: DX-2930, fully human IgG1 monoclonal antibody (antibody, V domains shown)
VH: EVQLLESGGGLVQPGGSLRLSCAASGFTFSHYIMMWVRQAPGKGLEWVSGIYSSGGITVYADSVKGRFTISRDNSKNTLYLQMNSLRAEDTAVYYCAYRRIGVPRRDEFDIWGQGTMVTVSS
VL: DIQMTQSPSTLSASVGDRVTITCRASQSISSWLAWYQQKPGKAPKLLIYKASTLESGVPSRFSGSGSGTEFTLTISSLQPDDFATYYCQQYNTYWTFGQGTKVEIK
